Biological target: cynomolgus PD-1 (cynomolgus)
Experiment: kinetic analysis (bio-light interferometry)

B1: Pembrolizumab (antibody, human IgG4 S228P, kappa, V domains shown)
VH: QVQLVQSGVEVKKPGASVKVSCKASGYTFTNYYMYWVRQAPGQGLEWMGGINPSNGGTNFNEKFKNRVTLTTDSSTTTAYMELKSLQFDDTAVYYCARRDYRFDMGFDYWGQGTTVTVSS
VL: EIVLTQSPATLSLSPGERATLSCRASKGVSTSGYSYLHWYQQKPGQAPRLLIYLASYLESGVPARFSGSGSGTDFTLTISSLEPEDFAVYYCQHSRDLPLTFGGGTKVEIKR
notes: also called MK3475
Kd: 0.118 nM
